Test results published in the supplement of paper PMC10567573.

B1: FAM46D (parent)
chain: LELKFVSSLRRQFEFSVDSFQIVL
B2: HSP90AB1 (parent)
chain: QVANSAFVERVRKRGFEVVYMTEP

Variants of: B1
Experiment: protein stability index of a GFP-peptide fusion (GPS, HEK-293T) (PSI 1-6); higher = more stable
Conditions: c terminus: a fixed tail appended
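Also: lentivirally expressed fusions sorted by FACS into six bins by GFP to DsRed ratio, PSI derived from sequencing read proportions per bin multiplied by bin number.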

Protein stability index of substitutions, site by site:
R10: I 3.38, L 3.46, M 2.72, N 2.23, P 3.23, S 3.46, T 2.83, V 2.04, W 2.01, Y 2.17
R11: A 4.7, C 3.03, D 1.97, E 3.47, F 3.08, G 3.69, H 2.97, I 2.54, K 3.21, L 2.62, M 2.27, N 3.06, Q 3.05, S 2.99, T 3.4, W 4.32, Y 3.14
Q12: A 4.78, C 1.78, D 2.52, E 2.55, F 2.68, G 2.76, H 2.46, K 3.09, M 3.09, N 2.49, P 2.65, R 2.39, S 3.06, T 2.42, V 3.44, W 3.97, Y 2.8
F13: C 4.36, D 2.54, E 2.55, H 2.73, I 3.87, K 2.91, L 3.36, N 2.82, Q 2.84, R 3.23, S 2.67, T 3.34, V 3.73, W 3.64, Y 1.76
E14: A 3.98, C 3.17, D 4, G 3.4, I 3.52, K 3.16, L 2.84, M 2.77, N 2.89, P 3.67, Q 2.24, R 2.17, S 2.66, T 4.77, V 2.06, W 2.46, Y 3.27
F15: C 2.42, D 2.09, E 3.22, G 3.1, H 5.32, I 4.07, K 2.13, L 3.69, M 2.58, N 4.46, P 2.92, Q 3.16, R 2.68, S 3.33, T 2.43, V 4.5, W 3.57
S16: A 3.32, C 3.91, D 3.15, E 2.89, F 2.79, H 2.69, I 2.93, K 3.51, M 3.57, N 3.05, P 3.75, R 3.43, T 4.1, V 3.91, Y 2.83
V17: A 2.4, C 3.37, D 4.26, E 1.91, F 2.88, G 2.62, H 3.65, I 2.8, K 2.76, L 3.25, M 4.44, N 3.45, P 2.44, R 3.4, S 2.19, T 2.76, W 4.01, Y 1.51
D18: A 4.25, C 2, E 1.74, F 2.06, G 2.54, H 4.76, I 3.49, K 3.6, L 2.1, M 4.61, N 3.43, P 3.29, Q 3.71, R 3.4, S 2.94, V 3.13, W 3.27, Y 3.18
S19: A 3.69, C 2.44, D 3.06, E 3.31, F 3.6, G 3.42, H 3.92, I 4.06, K 2.88, L 2.88, M 4.08, N 4, P 2.18, R 2.38, T 2.43, V 2.12, W 3.19, Y 2.75
F20: A 2.99, C 2.73, D 2.94, E 3.3, G 2.96, H 2.62, I 3.44, K 3.31, L 2.59, M 2.58, N 3.48, P 3.04, Q 1.61, R 2.22, S 2.55, T 1.62, W 3.5, Y 3.11
Q21: A 2.85, C 3.58, D 2.69, E 2.47, F 2.74, G 3.02, H 2.63, I 3.59, K 3.44, L 2.24, M 2.78, N 2.75, P 2.71, R 3.02, S 2.89, T 2.68, V 2.67, W 2.89, Y 2.8
I22: A 2.26, C 2.93, D 2.6, E 2.65, F 3.23, G 3.17, H 1.5, K 1.71, L 2.7, M 3.31, N 3.28, P 4.29, R 2.04, S 2.36, T 2.21, V 3.07, W 2.8, Y 3.01
V23: A 3.08, E 4.1, F 1.98, G 1.94, H 2.67, I 2.6, L 2.9, N 3.11, P 2.14, Q 2.29, R 2.76, S 2.88, T 2.62, W 3.15, Y 3.37
L24: A 2.78, C 3.35, D 1.78, E 3.4, F 3.74, G 2.6, H 4.63, I 3.26, K 2.35, M 2.73, N 2.39, P 2.58, Q 2.27, R 2.73, S 3.63, V 1.77, W 5.02, Y 2.7

Variants of: B2
Experiment: as above
Conditions: c terminus: a fixed tail appended

Protein stability index: each site, then its substitutions
V8: R 2.07, D 3.46, N 2.8
P24: K 2.44, N 2.32, R 2
G15: I 1.81, W 1.91, Y 1.61, A 2.01, F 2.21
F16: P 3.05, L 2.52
F7: D 3.56, T 3.42, R 2.75
N4: P 2.03, T 1.78, W 1.94, K 1.96, S 2.21
A3: G 2.28, I 2.06, V 2.43, L 1.85
T22: Y 1.95, V 1.63, N 2.51
E23: I 1.69, S 2.54, D 2.81, L 1.16
R10: A 2.18, I 1.94, F 1.29
S5: N 2.26, L 2.12, K 1.71
R12: L 2.1, V 2.16, P 2.74, C 1.98
E17: Q 1.51, P 2.02, K 2.02, V 1.89, S 2.49
V11: F 2.09, P 2.48, W 1.34, G 2.56
K13: M 1.53, V 1.54
R14: E 2.75, Q 2.1, C 1.36, F 1.92
E9: M 2.69, D 2.56, H 2.27
Y20: Q 3.41, G 3.52, D 3.06, L 2.22, P 2.81
V2: A 2.87, Q 2.58, G 2.59
V19: P 2.79, S 2.68, K 2.69
V18: S 2.57, W 2.05, K 2.12, C 2.38, E 2.99
A6: R 2.71, M 2.54, S 2.61
Q1: A 2.29, H 1.85, G 2.33, R 1.71
M21: D 2.96
